Test results: patent US20060099646A1, “Bret assay” (priority 2002, published 2006)

How the values were obtained:
[1] = Precipitation / stability of diluted DeepBlueC substrate solution; type: physicochemical
Description: One of the problems associated with setting up an assay, such as, e.g. a high through-put screening (HTS) assay, is to prepare a suitable solution of the substrate, DeepBlueC™. If the stock solution of DeepBlueC™ is diluted to the relevant concentration for use in a BRET assay in D-PBS as recommended, it will form a precipitate within 10 to 20 minutes, making it virtually impossible to use for a HTS assay.
(§1) Assay: • 1. Dilution of DeepBlueC to 100 μM in 40% ethanol in D-PBS with 1000 mg/l L-Glucose (#14287) (light sensitive!!). The DeepBlueC™ stock solution comprises 1 mM DeepBlueC™ in 100% v/v EtOH.
(§2) The dilution of DeepBlueC in 40% ethanol/buffer is essential for the stability of DeepBlueC. If DeepBlueC is diluted in buffer alone, it will precipitate within 10 to 20 minutes, making it virtually impossible to use the assay in HTS mode. […] 100 μl of resuspended cells were transferred into wells in 96-well white optiplate plate • 3. 12 μl agonist was added. • 4. 5 μl of diluted DeepBlueC/well was added, and the plate was read.

renilla luciferase = experiment: Light emission from renilla luciferase after addition of DeepBlueC solution (FIG. 3)
Description: as §2

NK-1/Rluc receptor = molecular target: T1, NK-1/Rluc receptor (Homo sapiens, UniProt P25103); experiment: NK-1 receptor internalization assay; type: cell-based; settings: COS7 cells, co-expressed with NK-1/Rluc; 125I-SP 10 min at 37 C; versus WT β-arrestin; FIG. 1
T1 construct: expressed in transfected cells; host or cells: COS7
Description: COS7 cells in 75 cm^2 flask (3×10^6 cells/flask) were used for transfection. NK-1/Rluc receptor (2 μg cDNA/flask) was coexpressed together with 6 μg GFP/β-arrestin 2, 6 μg GFP^2/β-arrestin R169E, 6 μg GFP^2/β-arrestin Lys 373 stop or 6 μg GFP^2/β-arrestin R393E, R395E. At the end of transfection period (3-5 hours), cells were washed twice with PBS, trypsinased and plated at a density of 2.5×10^5 cells per well in 12-well plates. After 48 hours, cells were washed once with assay medium (HEPES-modified DMEM with 0.1% BSA, pH 7.4) and incubated in assay medium for at least 1 hour before being incubated with ^125I-labeled SP (30000 cpm/well) in 0.5 ml assay medium 10 min at 37 C. Cells were then transferred onto ice and washed twice with ice-cold PBS. Subsequently, the extracellular receptor-associated ligand was removed by washing once with 1 ml of acid solution (50 mM acetic acid and 150 mM NaCl, pH 2.8) for 12 min. The acid wash was collected to determine the surface-bound radioactivity, and the internalized radioactivity was determined after solubilizing the cells in 0.2 M NaOH and 1% SDS (NaOH/SDS) solution. Nonspecific binding for each time point was determined under the same conditions in the presence of 1 μM unlabeled agonist (SP). After subtraction of nonspecific binding, the internalized radioactivity was expressed as a percentage of the total binding.

β2AR/Rluc receptor = molecular target: T2, β2AR/Rluc receptor (Homo sapiens, UniProt P07550); experiment: β2AR internalization assay; type: cell-based; settings: COS-7 cells, co-expressed with β2AR/Rluc; isopterenol 10 min at 37° C; versus WT β-arrestin; FIG. 1
T2 construct: expressed in transfected cells; host or cells: COS-7
Description: COS-7 cells in 75 cm^2 flask (3×10^6 cells/flask) were used for trasfection. β2AR/Rluc receptor (1.3 μg cDNA/flask) was coexpressed together with 6.5 μg GFP^2/β-arrestin 2, 6.5 μg GFP^2/β-arrestin R169E, 6.5 μg GFP^2/β-arrestin Lys 373 stop or 6.5 μg GFP^2/β-arrestin R393E, R395E. Receptor internalization assay was based on protocol described by Barak and Caron J Recept Signal Transduct Res 1995 January-March;15(14):677-90. At the end of transfection period (3-5 hours), cells were washed twice with PBS, trypsinesed and plated at a density of 2.5×10^5 cells per well in 12-well plates. After 48 hours, cells were washed once with assay medium (HEPES-modified DMEM with 0.1% BSA, pH 7.4) and serum-starved in the same medium for additional 2-3 hours before being stimulated with […] isopterenol for 10 min at 37° C. Stimulation was stopped by washing the cells with ice-cold PBS. Cells were then subjected to [^125I]-pindolol binding at 4° C. for 3 h and the fraction of internalized receptors determined relative to unstimulated cells. Non-specific binding was determined under the same conditions in the presence of 1 μM pindolol.

β2AR receptor = molecular target: T3, β2AR receptor (Homo sapiens, UniProt P07550); experiment: BRET assay, β2AR-Rluc / β-arrestin-2-GFP; type: cell-based; settings: β2AR receptor (class A) coexpressed with β-arrestin mutant; versus WT; FIG. 2
T3 construct: expressed in transfected cells
Description: (§3) Cell Preparation for BRET Assay: • 1. 48 hrs after transfection with 2 μg receptor-Rluc DNA (e.g. NK1-Rluc or β2AR-Rluc) and 5 μg β-arrestin-2 DNA (e.g. the R393E; R395E mutant) (for assays with GRK also 2 μg GRK DNA, e.g. GRK-5) media was removed and cell washed 1× with PBS • 2. 1 ml 1× trypsin (T75 flask) was added and incubated 3-5 min at 37 C • 3. 10 mL complete media was added. • 4. Cells were transferred to tube and spun down (5 min, 800 rpm) • 5. Media was removed, and cells resuspended in 10 ml PBS and counted, spun down (5 min, 800 rpm) • 6. Resuspended in D-PBS with 1000 mg/l L-Glucose (#14287) to a density of 2×10^6 cells/ml • 7. Cells were left at room temperature for at least 30 min, to stabilize readings.
as §1
as §2, with “12 μl agonist was added. • 4.” left out
(§4) Antagonist: • 1. […] 6 μl of diluted DeepBlueC/well was added, and the plate read.

NK1 receptor = molecular target: T4, NK1 receptor (Homo sapiens, UniProt P25103); experiment: BRET assay, NK1-Rluc / β-arrestin-2-GFP; type: cell-based; settings: NK1 receptor (class B) coexpressed with β-arrestin mutant; versus WT; FIG. 2
T4 construct: expressed in transfected cells
Description: as §3, §1
as §2, with “12 μl agonist was added. • 4.” left out
as §4

T4 sequence (P25103 whole entry, species assumed): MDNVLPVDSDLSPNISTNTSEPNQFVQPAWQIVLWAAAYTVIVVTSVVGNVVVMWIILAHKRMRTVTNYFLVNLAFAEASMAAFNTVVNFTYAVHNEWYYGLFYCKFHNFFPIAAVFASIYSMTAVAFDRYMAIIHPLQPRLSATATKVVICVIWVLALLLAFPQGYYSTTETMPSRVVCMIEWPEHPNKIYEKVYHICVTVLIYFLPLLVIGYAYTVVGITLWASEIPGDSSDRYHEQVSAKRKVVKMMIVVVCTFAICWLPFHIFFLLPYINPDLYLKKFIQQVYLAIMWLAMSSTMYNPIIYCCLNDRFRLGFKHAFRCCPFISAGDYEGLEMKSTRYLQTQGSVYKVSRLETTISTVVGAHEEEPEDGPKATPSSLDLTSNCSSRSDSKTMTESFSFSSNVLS
T1 sequence (P25103 whole entry): as the sequence (P25103 whole entry, species assumed) above

internalization of the NK1-R (NK-1/Rluc receptor) | internalization of the β2AR (β2AR/Rluc receptor) | specific BRET ratio (BRET signal) (β2AR receptor) | specific BRET ratio (BRET signal) (NK1 receptor) | Molecule | stability of diluted solution ([1]; diluted in 40% ethanol in D-PBS with 1000 mg/l L-Glucose) | time to formation of precipitate ([1]; stock solution diluted in D-PBS / buffer alone, no ethanol) | stability of light emission signal (renilla luciferase; DeepBlueC dissolved in buffer with 0% ethanol) | stability of light emission signal (renilla luciferase; DeepBlueC dissolved in buffer with 6% ethanol) | stability of light emission signal (renilla luciferase; DeepBlueC dissolved in buffer with 40% ethanol)
 |  |  |  | O=c1c(Cc2ccccc2)nc2c(Cc3ccccc3)[nH]c(-c3ccccc3)cn1-2 [DeepBlueC] | stable for hours | 10 to 20 min | rapidly decreases | rapidly decreases | stable for the duration of the experiment
inhibiting the internalization | inhibiting the internalization | increasing the BRET signal significantly | the effect is less pronounced | human β-arrestin-2 373 stop mutant: truncated human β-arrestin-2 lacking clathrin and/or AP2 binding sites; used as GFP fusion |  |  |  |  | 
inhibiting the internalization | inhibiting the internalization | increasing the BRET signal significantly | the effect is less pronounced | human β-arrestin-2 R393E; R395E mutant: human β-arrestin-2 wherein amino acids 393 and 395 have been changed from arginine to glutamic acid; used as GFP fusion |  |  |  |  | 
